B1: Protein NDR1 (Arabidopsis thaliana (Mouse-ear cress)), O48915 (parent)
chain: MNNQNEDTEGGRNCCTCCLSFIFTAGLTSLFLWLSLRADKPKCSIQNFFIPALGKDPNSRDNTTLNFMVRCDNPNKDKGIYYDDVHLNFSTINTTKINSSALVLVGNYTVPKFYQGHKKKAKKWGQVKPLNNQTVLRAVLPNGSAVFRLDLKTQVRFKIVFWKTKRYGVEVGADVEVNGDGVKAQKKGIKMKKSDSSFPLRSSFPISVLMNLLVFFAIR
partner: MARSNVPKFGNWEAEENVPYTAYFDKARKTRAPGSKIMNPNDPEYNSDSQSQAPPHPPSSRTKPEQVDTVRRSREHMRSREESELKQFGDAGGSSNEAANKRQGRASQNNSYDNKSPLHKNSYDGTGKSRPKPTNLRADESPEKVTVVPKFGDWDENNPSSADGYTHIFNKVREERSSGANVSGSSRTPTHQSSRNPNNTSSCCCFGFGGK

Variants of: B1
Conditions: with rin4_arath RIN4, Q8GYN5

Variant | effect of a mutation on the interaction
MNNQAEDTEGGRNCCTCCLSFIFTAGLTSLFLWLSLRADKPKCSIQNFFIPALGKDPNSRDNTTLNFMVRCDNPNKDKGIYYDDVHLNFSTINTTKINSSALVLVGNYTVPKFYQGHKKKAKKWGQVKPLNNQTVLRAVLPNGSAVFRLDLKTQVRFKIVFWKTKRYGVEVGADVEVNGDGVKAQKKGIKMKKSDSSFPLRSSFPISVLMNLLVFFAIR [N5A] | disrupting interaction
MNNANEDTEGGRNCCTCCLSFIFTAGLTSLFLWLSLRADKPKCSIQNFFIPALGKDPNSRDNTTLNFMVRCDNPNKDKGIYYDDVHLNFSTINTTKINSSALVLVGNYTVPKFYQGHKKKAKKWGQVKPLNNQTVLRAVLPNGSAVFRLDLKTQVRFKIVFWKTKRYGVEVGADVEVNGDGVKAQKKGIKMKKSDSSFPLRSSFPISVLMNLLVFFAIR [Q4A] | disrupting interaction

Reference: IntAct's records for PubMed 17012600
